Source: the supplement of paper PMC10724198
± gives the standard deviation of the averaged measurements.

Assays:
Saccharomyces cerevisiae [1] = experiment: protein stability index of tFT-peptide fusion (C-terminal peptide) (PSI (0-1 scale)); higher = more stable (slower turnover)
Description: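 MPS profiling in S. cerevisiae of the tFT-X12 degron library: putative degron peptides plus stable controls, 12 aa, fused to the C-terminus of a sfGFP-mCherry timer. Cells are FACS-sorted into 8 mCherry/sfGFP bins and deep-sequenced. PSI runs from 0 (unstable) to 1 (stable). Backgrounds are wild type, das1Δ and doa10Δ at 30 °C, and wild type, das1Δ, cdc34-1 and cdc53-1 at 37 °C; 2-3 technical replicates each.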

Saccharomyces cerevisiae [2] = experiment: as above; settings: genetic background: wild type; temperature: 30 C
[3] = genetic background: cdc34-1, temperature: 37 C
[4] = genetic background: cdc53-1, temperature: 37 C
[5] = genetic background: das1 deletion, temperature: 30 C
[6] = genetic background: das1 deletion, temperature: 37 C
[7] = genetic background: doa10 deletion, temperature: 30 C
[8] = genetic background: wild type, temperature: 30 C
[9] = genetic background: wild type, temperature: 37 C
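Also: PSI is a weighted mean of sequencing reads over stability bins, variants kept only with over 10 reads, mCherry proximal and sfGFP distal, peptide attached via GGGS linker.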

With AGSPPSRPPWLP the protein stability index (Saccharomyces cerevisiae [1]; [3]) was 0.675 ± 0.047, the protein stability index (Saccharomyces cerevisiae [1]; [4]) was 0.7369 ± 0.0062 and the protein stability index (Saccharomyces cerevisiae [1]; [5]) was 0.679 ± 0.051. It also gave a protein stability index (Saccharomyces cerevisiae [1]; [6]) of 0.759 ± 0.024, a protein stability index (Saccharomyces cerevisiae [1]; [7]) of 0.679 ± 0.034 and a protein stability index (Saccharomyces cerevisiae [1]; [8]) of 0.678 ± 0.021. The protein stability index (Saccharomyces cerevisiae [1]; [9]) was 0.719 ± 0.042 and the protein stability index (Saccharomyces cerevisiae [2]) was 0.506 ± 0.018.

Sequence VYVVCFRLGCWV has a protein stability index (Saccharomyces cerevisiae [1]; [3]) of 0.222 ± 0.0066, a protein stability index (Saccharomyces cerevisiae [1]; [4]) of 0.321 ± 0.013 and a protein stability index (Saccharomyces cerevisiae [1]; [5]) of 0.199 ± 0.035. The protein stability index (Saccharomyces cerevisiae [1]; [6]) was 0.39 ± 0.0064, the protein stability index (Saccharomyces cerevisiae [1]; [7]) was 0.172 ± 0.0025 and the protein stability index (Saccharomyces cerevisiae [1]; [8]) was 0.2 ± 0.022. The protein stability index (Saccharomyces cerevisiae [1]; [9]) was 0.371 ± 0.0082 and the protein stability index (Saccharomyces cerevisiae [2]) was 0.297 ± 0.036.

Sequence LSLCFGPFFYFP has a protein stability index (Saccharomyces cerevisiae [1]; [3]) of 0.679 ± 0.072, a protein stability index (Saccharomyces cerevisiae [1]; [4]) of 0.7329 ± 0.0056 and a protein stability index (Saccharomyces cerevisiae [1]; [5]) of 0.64 ± 0.029. It also gave a protein stability index (Saccharomyces cerevisiae [1]; [6]) of 0.711 ± 0.03, a protein stability index (Saccharomyces cerevisiae [1]; [7]) of 0.64 ± 0.042 and a protein stability index (Saccharomyces cerevisiae [1]; [8]) of 0.6242 ± 0.0027. It also gave a protein stability index (Saccharomyces cerevisiae [1]; [9]) of 0.704 ± 0.046.

In the case of GAVGGWGWVSFV, the protein stability index (Saccharomyces cerevisiae [1]; [3]) is reported as 0.683 ± 0.049, the protein stability index (Saccharomyces cerevisiae [1]; [4]) is reported as 0.7583 ± 0.0075 and the protein stability index (Saccharomyces cerevisiae [1]; [5]) is reported as 0.603 ± 0.034. For the same sequence, the protein stability index (Saccharomyces cerevisiae [1]; [6]) was 0.771 ± 0.01, the protein stability index (Saccharomyces cerevisiae [1]; [7]) was 0.3855 ± 0.0037 and the protein stability index (Saccharomyces cerevisiae [1]; [8]) was 0.397 ± 0.0083. For the same sequence, the protein stability index (Saccharomyces cerevisiae [1]; [9]) was 0.595 ± 0.092.

DNTVWLRLVTSC was tested, and the protein stability index (Saccharomyces cerevisiae [1]; [3]) was 0.32 ± 0.052, the protein stability index (Saccharomyces cerevisiae [1]; [4]) was 0.506 ± 0.011 and the protein stability index (Saccharomyces cerevisiae [1]; [5]) was 0.402 ± 0.017. The protein stability index (Saccharomyces cerevisiae [1]; [6]) was 0.565 ± 0.013, the protein stability index (Saccharomyces cerevisiae [1]; [7]) was 0.0752 ± 0.013 and the protein stability index (Saccharomyces cerevisiae [1]; [8]) was 0.0895 ± 0.015. It also gave a protein stability index (Saccharomyces cerevisiae [1]; [9]) of 0.0768 ± 0.016.

PPPPPSARSPFR gave a protein stability index (Saccharomyces cerevisiae [1]; [3]) of 0.649 ± 0.043, a protein stability index (Saccharomyces cerevisiae [1]; [4]) of 0.726 ± 0.012 and a protein stability index (Saccharomyces cerevisiae [1]; [5]) of 0.633 ± 0.027. The protein stability index (Saccharomyces cerevisiae [1]; [6]) was 0.7402 ± 0.0063, the protein stability index (Saccharomyces cerevisiae [1]; [7]) was 0.603 ± 0.03 and the protein stability index (Saccharomyces cerevisiae [1]; [8]) was 0.602 ± 0.0097. The protein stability index (Saccharomyces cerevisiae [1]; [9]) was 0.695 ± 0.004.

IMWAFFMFCSFL showed a protein stability index (Saccharomyces cerevisiae [1]; [3]) of 0.498 ± 0.067, a protein stability index (Saccharomyces cerevisiae [1]; [4]) of 0.53764 ± 0.00031 and a protein stability index (Saccharomyces cerevisiae [1]; [5]) of 0.428 ± 0.057. The protein stability index (Saccharomyces cerevisiae [1]; [6]) was 0.5564 ± 0.0029, the protein stability index (Saccharomyces cerevisiae [1]; [7]) was 0.37 ± 0.0076 and the protein stability index (Saccharomyces cerevisiae [1]; [8]) was 0.367 ± 0.026. For the same sequence, the protein stability index (Saccharomyces cerevisiae [1]; [9]) was 0.481 ± 0.044.

With FCLRQPMLRFFI the protein stability index (Saccharomyces cerevisiae [1]; [3]) was 0.586 ± 0.027, the protein stability index (Saccharomyces cerevisiae [1]; [4]) was 0.595 ± 0.012 and the protein stability index (Saccharomyces cerevisiae [1]; [5]) was 0.562 ± 0.037. The protein stability index (Saccharomyces cerevisiae [1]; [6]) was 0.639 ± 0.0057, the protein stability index (Saccharomyces cerevisiae [1]; [7]) was 0.479 ± 0.03 and the protein stability index (Saccharomyces cerevisiae [1]; [8]) was 0.442 ± 0.028. The protein stability index (Saccharomyces cerevisiae [1]; [9]) was 0.54348 ± 9.7e-05.

GLLMCNPLLHSI gave a protein stability index (Saccharomyces cerevisiae [1]; [3]) of 0.66632 ± 0.00053, a protein stability index (Saccharomyces cerevisiae [1]; [4]) of 0.734 ± 0.0075 and a protein stability index (Saccharomyces cerevisiae [1]; [5]) of 0.674 ± 0.038. The protein stability index (Saccharomyces cerevisiae [1]; [6]) was 0.727 ± 0.03, the protein stability index (Saccharomyces cerevisiae [1]; [7]) was 0.589 ± 0.032 and the protein stability index (Saccharomyces cerevisiae [1]; [8]) was 0.614 ± 0.011. It also gave a protein stability index (Saccharomyces cerevisiae [1]; [9]) of 0.704 ± 0.016.

Work on GGCGFVWWRLLG yielded a protein stability index (Saccharomyces cerevisiae [1]; [3]) of 0.544 ± 0.023, a protein stability index (Saccharomyces cerevisiae [1]; [4]) of 0.6932 ± 0.0055 and a protein stability index (Saccharomyces cerevisiae [1]; [5]) of 0.622 ± 0.033. It also gave a protein stability index (Saccharomyces cerevisiae [1]; [6]) of 0.752 ± 0.0098, a protein stability index (Saccharomyces cerevisiae [1]; [7]) of 0.125 ± 0.0054 and a protein stability index (Saccharomyces cerevisiae [1]; [8]) of 0.144 ± 0.033. It also gave a protein stability index (Saccharomyces cerevisiae [1]; [9]) of 0.199 ± 0.022.

In the case of TFCVLLQFCVLV, the protein stability index (Saccharomyces cerevisiae [1]; [3]) is reported as 0.365 ± 0.039, the protein stability index (Saccharomyces cerevisiae [1]; [4]) is reported as 0.398 ± 0.017 and the protein stability index (Saccharomyces cerevisiae [1]; [5]) is reported as 0.308 ± 0.028. It also gave a protein stability index (Saccharomyces cerevisiae [1]; [6]) of 0.426 ± 0.02, a protein stability index (Saccharomyces cerevisiae [1]; [7]) of 0.3058 ± 0.0007 and a protein stability index (Saccharomyces cerevisiae [1]; [8]) of 0.315 ± 0.012. The protein stability index (Saccharomyces cerevisiae [1]; [9]) was 0.411 ± 0.0012.

Sequence GGGRGGRWGRLC has a protein stability index (Saccharomyces cerevisiae [1]; [3]) of 0.65 ± 0.042, a protein stability index (Saccharomyces cerevisiae [1]; [4]) of 0.743 ± 0.016 and a protein stability index (Saccharomyces cerevisiae [1]; [5]) of 0.654 ± 0.013. The protein stability index (Saccharomyces cerevisiae [1]; [6]) was 0.7395 ± 0.007, the protein stability index (Saccharomyces cerevisiae [1]; [7]) was 0.188 ± 0.018 and the protein stability index (Saccharomyces cerevisiae [1]; [8]) was 0.214 ± 0.024. For the same sequence, the protein stability index (Saccharomyces cerevisiae [1]; [9]) was 0.483 ± 0.012.

Sequence RVIESRWFNRLC has a protein stability index (Saccharomyces cerevisiae [1]; [3]) of 0.587 ± 0.033, a protein stability index (Saccharomyces cerevisiae [1]; [4]) of 0.72 ± 0.015 and a protein stability index (Saccharomyces cerevisiae [1]; [5]) of 0.656 ± 0.025. For the same sequence, the protein stability index (Saccharomyces cerevisiae [1]; [6]) was 0.7405 ± 0.0048, the protein stability index (Saccharomyces cerevisiae [1]; [7]) was 0.0884 ± 0.011 and the protein stability index (Saccharomyces cerevisiae [1]; [8]) was 0.121 ± 0.019. For the same sequence, the protein stability index (Saccharomyces cerevisiae [1]; [9]) was 0.229 ± 0.018.

APLPPVCPSPSL showed a protein stability index (Saccharomyces cerevisiae [1]; [3]) of 0.667 ± 0.081, a protein stability index (Saccharomyces cerevisiae [1]; [4]) of 0.72 ± 0.015 and a protein stability index (Saccharomyces cerevisiae [1]; [5]) of 0.655 ± 0.0086. For the same sequence, the protein stability index (Saccharomyces cerevisiae [1]; [6]) was 0.713 ± 0.019, the protein stability index (Saccharomyces cerevisiae [1]; [7]) was 0.679 ± 0.052 and the protein stability index (Saccharomyces cerevisiae [1]; [8]) was 0.657 ± 0.018. It also gave a protein stability index (Saccharomyces cerevisiae [1]; [9]) of 0.72 ± 0.01.

Work on YLSRIFPSLLFL yielded a protein stability index (Saccharomyces cerevisiae [2]) of 0.6 ± 0.03.

In the case of DLAIPPPRPRFF, the protein stability index (Saccharomyces cerevisiae [2]) is reported as 0.701 ± 0.013.

For SSCGTITYLTPY, the protein stability index (Saccharomyces cerevisiae [2]) was 0.745 ± 0.015.

With VPSVCPFLSVLL the protein stability index (Saccharomyces cerevisiae [2]) was 0.647 ± 0.035.

VGLFRESLFRRG showed a protein stability index (Saccharomyces cerevisiae [2]) of 0.714 ± 0.072.

SGWASVCARAAI was tested, and the protein stability index (Saccharomyces cerevisiae [2]) was 0.745 ± 0.06.

SPLPSSPRSVPP showed a protein stability index (Saccharomyces cerevisiae [2]) of 0.744 ± 0.094.

RRSTRAGWPGNW gave a protein stability index (Saccharomyces cerevisiae [2]) of 0.5 ± 0.1.

With VVYFARGDNVYA the protein stability index (Saccharomyces cerevisiae [2]) was 0.682 ± 0.05.

For DKGTMNRARGGS, the protein stability index (Saccharomyces cerevisiae [2]) was 0.683 ± 0.024.

Sequence RGVSVRLSLAYR has a protein stability index (Saccharomyces cerevisiae [2]) of 0.6216 ± 0.0048.

With FPAPPPPPRPAS the protein stability index (Saccharomyces cerevisiae [2]) was 0.69 ± 0.033.

In the case of LPRREQILRKGS, the protein stability index (Saccharomyces cerevisiae [2]) is reported as 0.71 ± 0.023.

With PVITPPSSTPPI the protein stability index (Saccharomyces cerevisiae [2]) was 0.6815 ± 0.0021.

With LIRLLPPPPAVF the protein stability index (Saccharomyces cerevisiae [2]) was 0.487 ± 0.068.

KEDLGGMVSGGR was tested, and the protein stability index (Saccharomyces cerevisiae [2]) was 0.644 ± 0.009.

LAFFPPPLPPSS gave a protein stability index (Saccharomyces cerevisiae [2]) of 0.698 ± 0.064.

Work on VVSSAYRLKARP yielded a protein stability index (Saccharomyces cerevisiae [2]) of 0.696 ± 0.046.

DTDIHRKRTRQV was tested, and the protein stability index (Saccharomyces cerevisiae [2]) was 0.7 ± 0.037.

In the case of VGSSRRGCSGAE, the protein stability index (Saccharomyces cerevisiae [2]) is reported as 0.685 ± 0.024.

Sequence PSIPPPSPSPPA has a protein stability index (Saccharomyces cerevisiae [2]) of 0.717 ± 0.027.

IPLPMLLHLPRA showed a protein stability index (Saccharomyces cerevisiae [2]) of 0.684 ± 0.019.

PSPPPVRPRHHH was tested, and the protein stability index (Saccharomyces cerevisiae [2]) was 0.597 ± 0.069.

In the case of GPGSFAPLPPRS, the protein stability index (Saccharomyces cerevisiae [2]) is reported as 0.684 ± 0.033.

VYCIEFNRQWDA was tested, and the protein stability index (Saccharomyces cerevisiae [2]) was 0.693 ± 0.048.

Work on LTPNSLCSFLSR yielded a protein stability index (Saccharomyces cerevisiae [2]) of 0.702 ± 0.013.

Sequence GWEVGGGRLGVV has a protein stability index (Saccharomyces cerevisiae [2]) of 0.716 ± 0.11.

VIRSLPSSALPL was tested, and the protein stability index (Saccharomyces cerevisiae [2]) was 0.662 ± 0.08.

Sequence HCPRPRPTCRPP has a protein stability index (Saccharomyces cerevisiae [2]) of 0.615 ± 0.1.

With PHPPGFGPGRTL the protein stability index (Saccharomyces cerevisiae [2]) was 0.698 ± 0.068.

PLLFGGGGVSVL showed a protein stability index (Saccharomyces cerevisiae [2]) of 0.70247 ± 0.00036.

With WREGKTCTRKGG the protein stability index (Saccharomyces cerevisiae [2]) was 0.57 ± 0.047.

In the case of GPPPRYLPAFPA, the protein stability index (Saccharomyces cerevisiae [2]) is reported as 0.7057 ± 0.0042.

Sequence SLRPRPSLFPPP has a protein stability index (Saccharomyces cerevisiae [2]) of 0.7196 ± 0.00099.

With CKPAGEGPTASM the protein stability index (Saccharomyces cerevisiae [2]) was 0.678 ± 0.037.
